We go through 4 substances from patent US20240318135A1.

The target of experiment [1] is MART-1 peptide on HLA-A*02:01 (human). The experiment in a line: NFAT-eGFP in TnT-TCR cells after overnight co-culture with peptide-pulsed T2 cells, FIG. 8C; full-length, on cells.
Experiment [2] deals with HLA-A*0201-… MHC dextramer (human). The experiment in a line: flow cytometry of TnT-TCR cells stained with fluorescently-labelled pMHC dextramer and anti-CD3. (In flow cytometry, cells or beads pass a laser one at a time.)
Experiment [3] shares this target. Kind of experiment: flow cytometry, serial dilutions of the target pMHC dextramer on TnT-TCR cells, pMHC-dex+ cells (% of max), three-parameter fit, n=3; the concentration is that of the dextramer.
The target of experiment [4] is NY-ESO-1 peptide … presented by HLA*A0201 on T2 cells (human).
Experiment [5] has as its target MART-1 peptide … presented by HLA*A0201 on T2 cells (human).
The target is the same in experiment [6]. The experiment in a line: cell-based or functional assay.
Experiment [7] deals with HLA-A*0201-… MHC dextramer (human). Kind of experiment: flow cytometry, serial dilutions of pMHC dextramer on TnT-TCR cells; EC50 of normalized dextramer saturation curves.

For the substance DMF5, the difference of peptide EC50 between DMF4 and DMF5 in experiment [1] is < 2 fold.

One may read the EC50 as the concentration needed to bring the measured effect to its halfway point. A lower EC50 goes with an effect from little substance. In experiment [2], TCR 1G4 yielded a Q2 (percent of cells CD3+ and [..] pMHC dex+) (% (unit not given)) of 96.1. In experiment [3], this substance displayed an EC50 of 0.0568 nM. For the same substance, the EC50 (peptide concentration for half-maximal GFP+ cells, NFAT-GFP reporter) in experiment [4] was 167 nM.

In turn, TCR DMF4 came in with a Q2 (percent of cells CD3+ and [..] pMHC dex+) (% (unit not given)) in experiment [2] of 48. The substance also showed an EC50 in experiment [3] of 0.267 nM. Further, in experiment [5], the EC50 (peptide concentration for half-maximal GFP+ cells, NFAT-GFP reporter) came out at 14.2 nM.

With TCR DMF5, the Q2 (percent of cells CD3+ and [..] pMHC dex+) (% (unit not given)) in experiment [2] was determined as 99.1. This substance also returned an EC50 in experiment [3] of 0.00692 nM. Besides, the fold difference in functional EC50 between DMF4 and DMF5 in experiment [6] was < 2 fold. The substance also came in with an EC50 (peptide concentration for half-maximal GFP+ cells, NFAT-GFP reporter) in experiment [5] of 8.13 nM. For the same substance, the fold lower EC50 than DMF4 in experiment [7] is 39 fold.
